B1: 4H6 (antibody, V domains shown)
VH: QVQLVQSGAEVKKPGASVKVSCKASGYTFTDYYLHWVRQAPGQGLEWMGWIHPNSGGTNYAQKFQGRVTMTRDTSISTAYMGLSSLRSDDTAVYYCARDGTSSFDYWGQGTLVTVSS
VL: DIQMTQSPSSVSASVGDRVTITCRASQGISRWLAWYQQKPGKAPKLLIYGASSLQSGVPSRFSGSGSGTDFTLTISSLQPEDFAIYYCQQANSFPFTFGPGTKVDIK
notes: tested as antibody purified from hybridoma supernatant or made recombinantly
B2: 194C1 (antibody, V domains shown)
VH: QVQLVESGGGVVQPGRSLRLSCAASGFTFSSYGMHWVRQAPGKGLEWVAVIWYDGSNEHYADSVKGRFTISRDNSKNTLYLQMNSLRAEDTAVYYCARNRGVGYYGLDVWGQGTTVTVSS
VL: DIQMTQSPSSLSASVGDRVTITCRASQGISNYLAWFQQKPGKAPKSLIYAASSLQSGVPSKFSGSGSGTDFTLTISSLQPEDFATYYCLHYLTYPLTFGGGTKVEIK
B3: 197G3 (antibody, V domains shown)
VH: B2 VH with A23V, Y32H, E58K, H59N, N99D, R100P, G101S, Y105D, L107M
VL: DIQMTQSPSSLSASVGDRVTITCRASQGIGNHLAWFQQKPGKAPKSLIYAASSLQSGVPSKFSGSRSGTDFSLTISSLQPEDFATYYCQQYSNYPVTFGPGTKVDIK
B4: 194A4 (antibody, V domains shown)
VH: QVQLVQSGTEVKKPGASLKVSCKASGYTFTVYYLNWVRQAPGQGLEWMGWINPNSGGTNYAQKFQGRVTMTRDTSISTAYMELSRLRSDDTAVYYCARGYDILTGWGQGTLVTVSS
VL: EIVLTQSPGTLSLSPGERATLSCRASRGVSNIYLAWYQQKPGQAPRLLIYGASNRATGIPDRFSGSGSGTDFTLTISRLEPEDFAVYYCQHNDYSMFTFGPGTKVDIK
B5: 4A2 (antibody, V domains shown)
VH: QVQLVQSGTEVKKPGASVKVSCKASGYTFTNYDINWVRQATGQGLEWMGWMHPNSGNTGYAQKFQGRVTLTRNTSISTAYMELSSLRSEDTAVYYCASSSGWYYFDYWGQGTLVTVSS
VL: DIVMTQSPDSLAVSLGERATINCKSSQSILHSSNNNNYLAWFQQKPGQPPKLLLYWASTRESGVPDRFSGSGSGTDFTLTISSLQPEDVAVYYCQQYYNTPVTFGPGTKVGIK
B6: 193E7 (antibody, V domains shown)
VH: QVQLQQWGAGLLKPSETLSLTCAVYGGSFSGYFWTWIRQPPGKGLEWIGEINHSGSTNYNPSLKSRVTISVDTSKNQFSLKLSSVTAADTAVYYCARDYGADYWGQGTLVAVSA
VL: DIQMTQSPSSLSASVGDRVTITCRASQGIRNDLGWYQQKPGKAPKRLIYSASSLQRGVPSRFSGSGSGTEFTLTISSLQPEDFATYYCLQHKRYPLTFGGGTKVEIK
B7: 198D2 (antibody, V domains shown)
VH: QVQLVESGGGVVQPGRSLRLSCAASGFTFRSYGMHWVRQAPGKGLEWVAVIIYDGSYKYYADSVKGRFTISRDNSKNTLYLQMNSLRAEDTAVYYCARTYSGGMDVWGQGTTVTVSS
VL: QSVLTQPPSVSAAPGQKVTISCSGSSSNIGSNYVSWYQQLPGTAPKVLIYDNNKRPSGIPDRFSGSKSGTSATLGITGLQTGDEADYYCGTWDSRLNVGVFGGGTKLTVL
B8: 218G4 (antibody, V domains shown)
VH: QVQLVESGGGVVQPGRSLRLSCAASGFTFSSYGLHWVRQAPGKGLEWVAVIWYDGSNKYYADSVKGRFTISRDNSKNTLYLQMNSLRVEDTAVYYCANWYYYYYGMDVWGQGTTVTVSS
VL: B7 VL with S31N, V47L, I49L, N52S, D61A, R95S, V98T, G99V
B9: 202A3 (antibody, V domains shown)
VH: QVQLEQSGAEVKKPGASVKVSCKASGYTFTSYDINWVRQATGQGLEWLGWMNPKRGNTGYAQKFQGRVTMTRNTSISTAHMELSSLRSEDTAVYYCARGRYSREDYYYYYDMDVWGQGTTVTVSS
VL: DIQMSQSPSSLSASVGDRVTITCRASQGIRNDLGWYQQKPGKAPKRLICAASRLQSGVPSRFSGSGSGTEFTLTISSLQPEDFAIYYCLQHHDYPFTFGPGTKVDIK
B10: 194C10 (antibody, V domains shown)
VH: QVQLQQWGAGLLKPSETLSLTCAVSGGSFRYYYWSWIRQPPGKGLEWFGEINHSGSTNYNPSLKSRVTISIDTSKNQFSLKLRSVTAADTAVYYCARDYGAFDIWGQGTMVTVSS
VL: EIVLTQSPGTLSLSPGERATLSCRASPSVNSGYLAWYQQKPGQTPRLLIFGASSRATGIPDRFSASGSGADFTLTISRLEPEDFAVYFCQQYESSPWTFGQGTKVEIK
B11: 4B1 (antibody, V domains shown)
VH: QVQLQESGPGLVKPSETLSLTCSVSGDSISSYSWSWIRQPAGKGLEWIGRIYTSGSTNYIPSLKSRITMSVDTSKKQFSLKLSSVTAADTAVYYCARDLKSSGCLFFDYWGQGTLVTVSS
VL: DIQMTQSPSSLSASVGDRVTITCRASHTIRTYLNWYQQKPGKAPKLLIYAASSLQSGVPSRINGSGSGTDFTLTITNLQPEDFATYYCQQSYNISFTFGPGTKVDIK

Consider eleven molecules from patent US20190248902A1 (published 2019).

Substitutions are numbered along the chain they refer to.

The target in one experiment is T1, human ASGR-1 (human, UniProt P07306 1-291).
T1 construct: Stably expressed on CHO-S cells (CHO-S:huASGR-1); The method text says human or mouse ASGR-1 cells were used; also called huASGR-1; hASGR-1
T1 sequence: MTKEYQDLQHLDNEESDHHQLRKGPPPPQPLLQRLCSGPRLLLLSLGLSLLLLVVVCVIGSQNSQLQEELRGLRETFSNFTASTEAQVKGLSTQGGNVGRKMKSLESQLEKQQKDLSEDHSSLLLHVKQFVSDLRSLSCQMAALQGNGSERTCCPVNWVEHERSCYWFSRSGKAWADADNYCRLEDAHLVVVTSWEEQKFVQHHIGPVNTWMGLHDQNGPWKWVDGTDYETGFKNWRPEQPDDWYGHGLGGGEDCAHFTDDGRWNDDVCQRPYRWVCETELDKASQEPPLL
As to the kind of experiment: FACS ligand blocking on CHO-S ASGR-1 cells; competitor biotinylated asialofetuin. As for the experimental part:
(§1) All ASGR-1 antibodies that bound either human or mouse ASGR-1 stable CHO—S cells were then tested for ligand blocking using both a protein ligand and a synthetic sugar ligand. The method in brief is as follows: first, 20 ul of either CHO-Shuman or mouse ASGR-1 cells were added to wells of a 384 well plate (30 k cells/well) followed by spin and discarding the supernatant. Second, 10 ul of the antibodies (either purified from hybridoma supernatants or made recombinantly) were added in duplicate to the cells in a dilution series (200 nM top concentration, 1:2 serial dilution, 11 point curve) and were incubated for 30 min at 4 C. […] After 30 min incubation at 4C, the plate was spun and washed twice with FACS buffer+1 mM CaCl2 followed by the detection streptavidin-AF647 at 1:1000 dilution. After 30 min at 4C, the cells were spun and washed once and then 60 ul PI added at 1:1000 dilution and the plates delivered to a core flow cytometry facility. The plates were read and processed similarly to the cell binding method except the signal now represents an inhibition curve and typically decreases a function of increasing antibody concentration. IC50 nM potency and % Inhibition were reported. […] Differences in the ability of antibodies to block these two ligands could occur as a result of differences in, for example, avidity stemming from differences in the number and/or orientation of the ASGR binding terminal sugar residues of each ligand, steric hindrance between antibody and each ligand, and/or changes in the conformation of ASGR induced by antibody binding that selectively alters the binding of each ligand.
Usually % Inhibition stands for the share of the control response that was lost under treatment. A low value points to a weak effect. For orientation: IC50 means the concentration at which inhibition is half-maximal. A low value points to greater potency in that assay. In the case of B1, the “% Inhibition” value came to 85% and the IC50 was 12 nM.

Regarding B2, the “% Inhibition” value is 99% and the IC50 was 34 nM.

Take B3: the “% Inhibition” value amounted to 90% and the IC50 was found to be 29 nM.

Regarding B4, the “% Inhibition” value is 99% and the IC50 came to 57 nM.

For B5, the “% Inhibition” value is 99% and the IC50 turned out to be 11 nM.

B6: the “% Inhibition” value was 99% and the IC50 came out at 30 nM.

In the case of B7, the “% Inhibition” value amounted to 99% and the IC50 worked out at 22 nM.

B8: the “% Inhibition” value is 99% and the IC50 came to 28 nM.

In the case of B9, the “% Inhibition” value is 98% and the IC50 was 16 nM.

In the case of B10, the “% Inhibition” value worked out at 99%.

Take B11: the “% Inhibition” value came out at 75% and the IC50 is 64 nM.

For a further experiment, the target named is T1, human ASGR-1. As to the kind of experiment: FACS ligand blocking on CHO-S ASGR-1 cells; labelled ligand biotin-GalNAc-PAA (synthetic sugar). The method, then: as §1
Turning to B1, the “% Inhibition” value was found to be 20% and the IC50 worked out at 8.1 nM.

In the case of B2, the “% Inhibition” value was found to be 89% and the IC50 came to 72 nM.

Consider B3, for which the “% Inhibition” value was found to be 74% and the IC50 was found to be 15 nM.

For B4, the “% Inhibition” value amounted to 60% and the IC50 was 48 nM.

Take B5: the “% Inhibition” value is 70% and the midpoint of inhibition, the IC50, lay at 54 nM.

Regarding B6, the “% Inhibition” value came out at 60% and the IC50 was found to be 33 nM.

Take B7: the “% Inhibition” value came to 99% and the IC50 was found to be 55 nM.

As for B8, the “% Inhibition” value was 99% and 71 nM corresponded to half-maximal inhibition (IC50).

For the molecule B9, the “% Inhibition” value worked out at 96% and the IC50 came out at 32 nM.

Turning to B10, the “% Inhibition” value worked out at 99%.

Turning to B11, the “% Inhibition” value came to 36% and the IC50 stood at 42 nM.
